Biological target: SARS-CoV spike on S-pseudotyped MLV virions (SARS-CoV)
Assay: cell-based or functional assay

COVA1-16 (antibody)
percent neutralization of pseudovirus at 200 µg, antibody alone: 28%
